Source: the DeepSol protein solubility set

Test: soluble on expression in E. coli; label from the status in PepcDB or PDB records

| Sequence | soluble on expression in E. coli |
| --- | --- |
| MKNSVDRELPAELMTKLNYQGFESTEIGHPEIQRVAPKVHVSTGDNKVVDSVADVVKATVKDGMTISFHHHFRNGDFVFNQVMRAIIDAGIKDLTLAPSSLTGVMNDMVIEAIKAGTITNITSSGMRGSLGDFVSHGGLKNPVIFRSHGNRARAIEHGDIKIDVAFLGVPNADRLGNANGMAGKAVFGSLGYALMDAQYANQVVLLTDNIVAYPNTPASIKQTQVDYVVQVDQVGDPDKIGSGATRFTKDPKELKIAQTVNNVIVNSPYFKNGFSFQTGSGGAALAVTRYLRQAMLDNQIKASFALGGITKPTTDLLEEGLVDKVMDVQDFDKGAAASMHANPNQQEIDASWYADPDNKGAMVDQLDVAILSALEIDTHFNVNVMSGSDGVIRGAIGGHQDAATAKLTIISAPLVRGRLATIVPEVTTVVTPGDSIDVVVTEYGIAINPRRQDLVKALSHVPGVPVYMIEELQQLAEKKVGQPQPLEFTDRTVALIEYRDGTIIDTIKAVKDLEHHHHHH | not soluble |
| MKNTFLYFRWEDLHGEIGVDSFNLLRASYSNLSEQQLVELIKELISIEREDIAAKFDIHLSENAPVFDERQHVVYKGVAGDMNYKDMLLSLVTALDLTNTLDHVQNILSLAKCLRSFDREIFARFAKDIAEEVYYSLKLEHHHHHH | soluble |
| MKPESHCVYLELSAEREHKFYEVTVEGAELTIRYGRIGTEGQTQRKSFADSAGAQAEAEKKLVEKRKKGYGDAVRGQTEKKAVEQPRLKLPRKFEPYRERIEATLRPVLLLEVLEEEPGPLGSKVGGVPYRVQGEAWPTDTEGRPLTFLAQLNFADLPPLEGYPENGILQFFIGRDDLYGCDFMRPEEGNPASFEVRWSPEPQMDLSQLDVETPDFDDDGFSPLETLRGFGLRGQQVEQPMSWCDCHFEQAIGLDLCDNSEGPEGRALGEWRQEKYDELATYGHQVGGYPSFTQEDPRTADDPRILLFQLDSEAGKITWGDVGIANFFIDPDDLARWDFSRVAYNWDCTLEHHHHHH | soluble |
| MKPIDEFLYVKQNYLTSDTNSLMRLYFPIIGSDAAGLYQYFVSFFDNGEKKHKFSEILNHTQFGMACFENALSVLTAMDLLVFYRQENLYYIKLKAPLNAETFLKNAVYRHLLEQKIGQVAVEHLDLHLPREAQDLSKQFSEVFTAAGQLDLKTPKSKTDFDLDHFKDLMIRDNLQFTDEQTDVIALYILSEKYQLTWYETYLLAKETASNYRISLKRMQAKQEQRDHVDADNSFSKKEQIIIEEAKADKVEVFLAKIKKTRHAAITKDERSLLAELAEMGFLDEVINIMLLYTLDKTNTANINKTYIMKIANDFAFQKIDSAEKAVLKLRSFAERKTKQNQKKIKESSKNNVPEWSNQDYQNNTTADEQARLDEIKRKTLAR | not soluble |
| MKPLKRHPALIGLSRDHHHSLSLCVRLLRTPEERHRDELEPHFSELETHFREEETKFAPIWQNVAPELKQRFEKDHARLRQMMASPEYGNAAWNTAFATTLRDHARFEERELFPAAEPFLPA | not soluble |
| MKPPICRRMSLPPVLAKKEGERIQVPEGGELVCYRNQEDQHLFLKIEYSRETMIKLSSSVFCYARPTGLKEVSDELPELLGLPHSIPLTDSPPNFECLPEPLAHVSGCNSHFSMNHPPPLLSPLRGPVTEADEAMRTLSSHRELQKRLQNMSMRGELSPSGCLVDSCDTPAIRQIRNPQFT | not soluble |
| MKPRGICFFDMDGTLLNSESKVLDTSLQALDKLRENNVIPVIATGRTLIEISHQMKITGIESAVMMNGQMAIFEGEKVYEDVIDADLLDRLTEEAKSQNVEVCYYNDKRIGATASTPVVKAHYDFLGEPMPKVRPNMYKEETINMALLLLETGDDYFPERFPELQFVRNTPFSNDVLRKGGSKAVGISKLLEVMGYQDVPTYAFGDGMNDLEMFGAVDYAIAMENAVPLLKEKADFVTKDNNSDGIMLGLKQFDLI | not soluble |
| MKPVFLDFEQPIAELTNKIDELRFVQDESAVDISDEIHRLQKKSNDLTKSIFSKLTPAQISQVSRHPQRPYTLDYIEALFTDFEELHGDRHFADDYAIVGGLARFNGQSVMVVGHQKGRDTKEKIRRNFGMPRPEGYRKALRLMKTAEKFGLPVMTFIDTPGAYPGIGAEERGQSEAIGKNLYELTRLRVPVLCTVIGEGGSGGALAVALGDYVNMLQYSTYSVISPEGCASILWKTAEKAADAAQALGITADRLQKLDLVDTVIKEPLGGAHRDFGQTMKNVKAVLEKQLHEAQSIPLADLLSRRFDRIMAYGKFSEQ | not soluble |
| MKPYLEEKLEGARKSVPGFALEELKQKIISSPIQFGKSDIDDLVSNLLKRYEQTKENSLIGKIDSIFKEISDIEKVMSAKQPEPAQQQAPVEKPKKKAKLEVIGDDVVSIMVSLRWLEFLLDNYGPENTLDVLDYYESLGWISATVKEQMMKYAKMTGVMNPAQEYKIKPSIQDHIINMLFIEKLRGEEINRDLIEALEREFRTIRKGVDELYGI | soluble |
| MKPYYVTTAIAYPNAAPHVGHAYEYIATDAIARFKRLDRYDVRFLTGTDEHGLKVAQAAAAAGVPTAALARRNSDVFQRMQEALNISFDRFIRTTDADHHEASKELWRRMSAAGDIYLDNYSGWYSVRDERFFVESETQLVDGTRLTVETGTPVTWTEEQTYFFRLSAYTDKLLAHYHANPDFIAPETRRNEVISFVSGGLDDLSISRTSFDWGVQVPEHPDHVMYVWVDALTNYLTGAGFPDTDSELFRRYWPADLHMIGKDIIRFHAVYWPAFLMSAGIELPRRIFAHGFLHNRGEKMSKSVGNIVDPVALAEALGVDQVRYFLLREVPFGQDGSYSDEAIVTRINTDLANELGNLAQRSLSMVAKNLDGRVPNPGEFADADAALLATADGLLERVRGHFDAQAMHLALEAIWLMLGDANKYFSVQQPWVLRKSESEADQARFRTTLYVTCEVVRIAALLIQPVMPESAGKILDLLGQAPNQRSFAAVGVRLTPGTALPPPTGVFPRYQPPQPPEGK | not soluble |
| MKQSIVSLAQVIRSKNAGPYELVLDILFKTKENYERVKSSGQLTPELIARLYHVEPDFIHRIVWFDPSNAVKIVMPRDIISGNVGDNDVYGAQQHAPLLNMSFDL | soluble |
| MKQWADDENLPMERYKNYQMIVPAFIIKDILDGKIPETFEDSKNIKMIEASWGEESYTKGHIPTSVHVNTDIIEPPPTWMLDNDDNLTKFALDYGLTKDDTVIVSSSTPMASYRLAVILRYIGVKDVRVLNGGTNSWLSAGYELEFISNPKLEHHHHHH | not soluble |
| MKRDGHTHTEFCPHGTHDDVEEMILKAIELDFDEYSIVEHAPLSSEFMKNTAGNQEAVTTASMSMSDLPYYFKKMNQMKKKYASDLLIHIGFEVDYLIGYEDFTRDFLNEYGPQTDDGVLSLHFLEGQGGFRSIDFTAEDYNEGIVQFYGGFEQAQLVYLAGVKQSIEADLGAFKPRRIGHISLCQKFQQFFGADGRDFTAEVIAEFEAILALVKKRGYELDFNTAGLFKPLCKETYPPKEIVTLARALEIPFVYGSDSHGVADIGRGYNTYCQKLEHHHHHH | soluble |
| MKREEIADLMAFVVVAEERSFTRAAARLSMVQSALSQIVRRIEERLGLRLLTRTTRSVVPTEAGEHLLSVLGPILHDIDSALTSLSDLQNRPSGTIRITTVEHAAKTILLPAMRTFLKSHPEIDIQLTIDYGLTDVVSERFDAGVLRCTGNSGYYHLFFF | not soluble |
| MKRFDLRPLKAGIFERLEELIEKEMQPNEVAIFMFEVGDFSNIPKSAEFIQSKGHELLNSLRFNQADWTIVVRKKA | not soluble |
| MKRGDIAHGLRLSGFKSLFPFSLHWCHTASKSVNCTWHQHEDHLELQYASTVMRFDYVWLRDHCRSASCYNSKTHQRSLDTASVDLCIKPKTIRLDESTLFFTWPDGHVTRYDLDWLVKNSYEGQKQEVIQPRVLWNAKLYQDAQLPSVDFQGFLETKEGLKKFLQNFLLYGIAFVENVPPTQEHTEKLARRVSLIRETIYGRMWYFTSDFSRGDTAYTKLALDRHTDTTYFQEPCGIQVFHCLKHEGTGGRTLLVDGFYAAQQVLQRAPEEFDLLSQVPLKHEYIENVGQCHNHMIGVGPILNIYPWNKELYLIRYNNYDRAVINTVPYDVVRRWYAAHRTLTTELRRPENELWVKLKPGKVLFIDNWRVLHGRESFTGYRQLCGCYLTRDDVLNTARILGLHA | not soluble |
